# Assay results taken from patent publication US9670514B2, “Method for producing polysaccharide” (SANYO CHEMICAL INDUSTRIES, LTD., priority 2011, dated 2017).
# What was measured:
# [1] = Enzyme activity ratio (Y1)=Vmax1/Vmax2 of conversion enzyme (Lineweaver-Burk); type: biochemical
# Description: In the present invention, in the case where ribonucleoside diphosphate conversion enzyme (D) is used, an enzyme activity ratio (Y1) calculated from the following formula (1) using enzyme activity Vmax1 and enzyme activity Vmax2 described below is preferably not lower than 0.1 in terms of efficient polysaccharide production and efficient use of the substrate (ribonucleoside diphosphate-monosaccharide (A)). Enzyme activity ratio (Y1)=Vmax1/Vmax2 (1) • Enzyme activity Vmax1: the enzyme activity of ribonucleoside diphosphate conversion enzyme (D) on ribonucleoside diphosphate. • Enzyme activity Vmax2: the enzyme activity of ribonucleoside diphosphate conversion enzyme (D) on ribonucleoside diphosphate-monosaccharide (A).
# An enzyme reaction solution (II) containing specific amounts of substrate (ribonucleoside diphosphate or uridine diphosphate-monosaccharide (A)), enzyme (polysaccharide synthase (B) or ribonucleoside diphosphate conversion enzyme (D)), pH adjuster (K), and water is prepared, which is adjusted to a specific temperature and a specific pH. • Phosphate-containing compound (F) is added, if necessary, to the enzyme reaction solution (II) if the enzyme to be used is (D4). Reducing agent (d6) is added if the enzyme is (D6), and raw material (d7) of nucleotide sugar is added if the enzyme is (D7).
# After preparation of the enzyme reaction solution (II), it is allowed to stand for enzyme reaction for 1 minute to 100 hours. Next, the amount (X) of the reaction product obtained from the reaction is measured to determine the initial enzyme reaction velocity v. Likewise, the initial enzyme reaction velocity v is determined, using the enzyme reaction solution (II) having a different substrate concentration. A Lineweaver-Burk plot is generated from the above-obtained initial enzyme reaction velocity v and substrate concentration, and the enzyme activity Vmax is determined therefrom.
# The enzyme activity Vmax (M/s) is determined using Lineweaver-Burk plot derived from Michaelis-Menten kinetics. […]
# In the above measurement, the result determined using ribonucleoside diphosphate conversion enzyme (D) as an enzyme and ribonucleoside diphosphate as a substrate represents Vmax1, and the result determined using ribonucleoside diphosphate conversion enzyme (D) as an enzyme and ribonucleoside diphosphate-monosaccharide (A) as a substrate represents Vmax2. In the case where two or more types of ribonucleoside diphosphate-monosaccharide (A) are used, Vmax2 is determined for each ribonucleoside diphosphate-monosaccharide (A). The enzyme activity ratio (Y1) is also determined for each type from formula (1) using each Vmax2. […]
# [2] = Specific activity of ribonucleoside diphosphate conversion enzyme solutions (TLC, UV 260 nm); type: biochemical; conditions: 1 mM uridine diphosphate, 30° C., pH 7.0, with the co-substrate of each enzyme
# Method: Reaction solution (2) was prepared by adding 10 μL of 1 M sucrose aqueous solution and 10 μL of sucrose synthase aqueous solution (D7-1) to 1 mL of aqueous solution R (50 mM phosphate buffer (pH of 7.0) containing 100 mM sodium chloride, 10 mM magnesium chloride, and 1 mM uridine diphosphate). Three such reaction solutions (2) were prepared and allowed to react at 30° C. for 5 minutes, 10 minutes, and 15 minutes, respectively. As for the amount of compound (C-7) as the reaction product (uridine diphosphate-glucose), the reaction product was developed on TLC (PEI-Cellulose plate available from Sigma-Aldrich Corporation, hereinafter the same) (developing solvent: an aqueous solution containing 1 M LiCl and 1 M formic acid, hereinafter the same), and detected with a UV light (260 nm). The specific activity of sucrose synthase aqueous solution (D7-1) was calculated to be 0.3 U/μL from the relationship between the yield of compound (C-7) and the reaction time.
# Reaction solution (3) was prepared by adding 0.1 mg of reduced thioredoxin and 10 μL of ribonucleotide diphosphate reductase aqueous solution (D6-1) to 1 mL of aqueous solution R. Three such reaction solutions (3) were prepared and allowed to react at 30° C. for 5 minutes, 10 minutes, and 15 minutes, respectively. As for the amount of compound (C-6) as the reaction product (deoxyuridine diphosphate), the reaction product was developed on TLC and detected with a UV light (260 nm). The specific activity of ribonucleotide diphosphate reductase aqueous solution (D6-1) was calculated to be 0.3 U/μL from the relationship between the yield of compound (C-6) and the reaction time. […]
# Reaction solution (5) was prepared by adding 10 μL of nucleotidase aqueous solution (D3-1) to 1 mL of aqueous solution R. Three such reaction solutions (5) were prepared and allowed to react at 30° C. for 5 minutes, 10 minutes, and 15 minutes, respectively. For the amount of compound (C-3) as the reaction product (uridine monophosphate), the reaction product was developed on TLC and detected with a UV light (260 nm). […]
substance,measurement,setting,value
"polyribonucleotide nucleotidyltransferase aqueous solution (D5-1): polyribonucleotide nucleotidyltransferase, SEQ ID NO: 6, derived from Escherichia coli",enzyme activity ratio (Y1) of each type,[1]; Vmax2 substrates uridine diphosphate-glucuronic acid and uridine diphosphate-N-acetylglucosamine,≥ 10
same,specific activity,[2],0.3 U/μL
"pyruvate kinase aqueous solution (D4-1-1): pyruvate kinase, SEQ ID NO: 4, derived from Escherichia coli",enzyme activity ratio (Y1) of each type,"[1]; Vmax2 substrates UDP-glucuronic acid, -N-acetylglucosamine, -N-acetylgalactosamine, -glucose, -mannose, -glucosamine",≥ 10
same,specific activity,[2],0.3 U/μL
"sucrose synthase aqueous solution (D7-1): sucrose synthase, SEQ ID NO: 2, derived from Vicia faba",enzyme activity ratio (Y1),[1]; Vmax2 substrate uridine diphosphate-N-acetylglucosamine,≥ 10
same,enzyme activity ratio (Y1),[1]; Vmax2 substrate uridine diphosphate-glucuronic acid,≥ 10
same,specific activity,[2],0.3 U/μL
